Residue numbers refer to the chain shown, from its start. Names may count otherwise.
T1: TNFR1 (Homo sapiens, UniProt P19438)
T1 chain: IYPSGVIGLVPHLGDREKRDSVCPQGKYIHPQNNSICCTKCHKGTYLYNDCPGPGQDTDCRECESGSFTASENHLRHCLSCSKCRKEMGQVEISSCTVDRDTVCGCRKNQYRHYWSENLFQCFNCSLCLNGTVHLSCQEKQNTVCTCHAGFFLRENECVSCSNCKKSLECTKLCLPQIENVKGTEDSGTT

B1: R89E (designed binder)
chain: MTLQELLREEALRRAEAEAFRYALELLAEKFPEQKEYLLDLAEEIESQIRSLSGVDVEDVRKFLDKEWAWVKELLAEHPAELAEVEAAEAARLAELRAEVEAKVAA
B2: L39R (designed binder)
chain: B1 chain with L39R, E89R
B3: L75K (designed binder)
chain: B1 chain with L75K, E89R
B4: L74N (designed binder)
chain: B1 chain with L74N, E89R
B5: R61F (designed binder)
chain: B1 chain with R61F, E89R
B6: D59E (designed binder)
chain: B1 chain with D59E, E89R
B7: F63M (designed binder)
chain: B1 chain with F63M, E89R
B8: P32A (designed binder)
chain: B1 chain with P32A, E89R
B9: L27N (designed binder)
chain: B1 chain with L27N, E89R
B10: L27H (designed binder)
chain: B1 chain with L27H, E89R
B11: L75Q (designed binder)
chain: B1 chain with L75Q, E89R
B12: A69D (designed binder)
chain: B1 chain with A69D, E89R
B13: E67H (designed binder)
chain: B1 chain with E67H, E89R
B14: W70C (designed binder)
chain: B1 chain with W70C, E89R
B15: A80I (designed binder)
chain: B1 chain with A80I, E89R
B16: V57A (designed binder)
chain: B1 chain with V57A, E89R
B17: E10S (designed binder)
chain: B1 chain with E10S, E89R
B18: M1K (designed binder)
chain: B1 chain with M1K, E89R
B19: A23E (designed binder)
chain: B1 chain with A23E, E89R
B20: V60G (designed binder)
chain: B1 chain with V60G, E89R
B21: A106H (designed binder)
chain: B1 chain with E89R, A106H
B22: A23S (designed binder)
chain: B1 chain with A23S, E89R
B23: A87G (designed binder)
chain: B1 chain with A87G, E89R
B24: E5C (designed binder)
chain: B1 chain with E5C, E89R
B25: V60I (designed binder)
chain: B1 chain with V60I, E89R
B26: A28S (designed binder)
chain: B1 chain with A28S, E89R
B27: K103A (designed binder)
chain: B1 chain with E89R, K103A
B28: L96A (designed binder)
chain: B1 chain with E89R, L96A
B29: P79A (designed binder)
chain: B1 chain with P79A, E89R
B30: F31S (designed binder)
chain: B1 chain with F31S, E89R
B31: E10N (designed binder)
chain: B1 chain with E10N, E89R
B32: E29S (designed binder)
chain: B1 chain with E29S, E89R
B33: V85E (designed binder)
chain: B1 chain with V85E, E89R
B34: Y37D (designed binder)
chain: B1 chain with Y37D, E89R
B35: E25R (designed binder)
chain: B1 chain with E25R, E89R
B36: A28C (designed binder)
chain: B1 chain with A28C, E89R
B37: A69C (designed binder)
chain: B1 chain with A69C, E89R
B38: V57F (designed binder)
chain: B1 chain with V57F, E89R
B39: E67T (designed binder)
chain: B1 chain with E67T, E89R
B40: A88Q (designed binder)
chain: B1 chain with A88Q, E89R
B41: D59R (designed binder)
chain: B1 chain with D59R, E89R
B42: R97D (designed binder)
chain: B1 chain with E89R, R97D
B43: A105I (designed binder)
chain: B1 chain with E89R, A105I
B44: R14N (designed binder)
chain: B1 chain with R14N, E89R
B45: F63Y (designed binder)
chain: B1 chain with F63Y, E89R
B46: E99M (designed binder)
chain: B1 chain with E89R, E99M
B47: E99Q (designed binder)
chain: B1 chain with E89R, E99Q
B48: E101Y (designed binder)
chain: B1 chain with E89R, E101Y
B49: A42P (designed binder)
chain: B1 chain with A42P, E89R
B50: L24I (designed binder)
chain: B1 chain with L24I, E89R
B51: L82Y (designed binder)
chain: B1 chain with L82Y, E89R
B52: W68F (designed binder)
chain: B1 chain with W68F, E89R
B53: A42I (designed binder)
chain: B1 chain with A42I, E89R
B54: A69N (designed binder)
chain: B1 chain with A69N, E89R
B55: F31G (designed binder)
chain: B1 chain with F31G, E89R
B56: L39M (designed binder)
chain: B1 chain with L39M, E89R
B57: E67N (designed binder)
chain: B1 chain with E67N, E89R
B58: K66I (designed binder)
chain: B1 chain with K66I, E89R
B59: H78A (designed binder)
chain: B1 chain with H78A, E89R

Target: T1, TNFR1
Assay: yeast display SC50

Row | Binder | apparent Kd (screen)
1 | B1 | 0.956 nM
2 | B2 | 1.4 nM
3 | B3 | 0.593 nM
4 | B4 | 1.27 nM
5 | B5 | 1.05 nM
6 | B6 | 0.539 nM
7 | B7 | 1.16 nM
8 | B8 | 0.653 nM
9 | B9 | 0.49 nM
10 | B10 | 0.869 nM
11 | B11 | 0.79 nM
12 | B12 | 0.653 nM
13 | B13 | 0.335 nM
14 | B14 | 2.73 nM
15 | B15 | 0.593 nM
16 | B16 | 0.49 nM
17 | B17 | 2.25 nM
18 | B18 | 0.49 nM
19 | B19 | 0.49 nM
20 | B20 | 1.54 nM

Row | Binder | apparent Kd (screen)
21 | B21 | 0.718 nM
22 | B22 | 0.446 nM
23 | B23 | 0.869 nM
24 | B24 | 0.79 nM
25 | B25 | 0.653 nM
26 | B26 | 0.79 nM
27 | B27 | 0.718 nM
28 | B28 | 2.73 nM
29 | B29 | 0.718 nM
30 | B30 | 0.956 nM
31 | B31 | 7.78 nM
32 | B32 | 0.539 nM
33 | B33 | 1.05 nM
34 | B34 | 16.7 nM
35 | B35 | 0.49 nM
36 | B36 | 2.25 nM
37 | B37 | 0.405 nM
38 | B38 | 0.718 nM
39 | B39 | 1.86 nM
40 | B40 | 0.49 nM

Row | Binder | apparent Kd (screen)
41 | B41 | 0.539 nM
42 | B42 | 0.593 nM
43 | B43 | 0.869 nM
44 | B44 | 0.593 nM
45 | B45 | 12.5 nM
46 | B46 | 0.956 nM
47 | B47 | 0.539 nM
48 | B48 | 0.446 nM
49 | B49 | 0.49 nM
50 | B50 | 0.653 nM
51 | B51 | 0.718 nM
52 | B52 | 0.539 nM
53 | B53 | 0.593 nM
54 | B54 | 0.653 nM
55 | B55 | 0.869 nM
56 | B56 | 1.4 nM
57 | B57 | 1.4 nM
58 | B58 | 0.869 nM
59 | B59 | 0.539 nM
